Laboratory results from the supplement of paper PMC9112550, “Optimization of the antimicrobial peptide Bac7 by deep mutational scanning” (BMC Biology, 2022).

test system: Escherichia coli TOP10; experiment: shrunken log2 fold change of peptide-encoding DNA abundance (4.5 h post-induction vs induction); higher = less antimicrobial activity (less host growth inhibition); conditions: time post-induction: 4.5 h; library: site-saturation at positions 5, 18, 19, 20
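Note: peptides expressed intracellularly from a pBAD plasmid library in pooled LB shake-flask culture, induced with 0.3% L-arabinose, DNA abundance read by NGS, three biological replicates, DESeq2 with apeglm shrinkage.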

Row | Sequence | shrunken log2 fold change
1 | RRIRLRPPRLPRPRPRPACSPRP | 0.0854
2 | RRIRLRPPRLPRPRPRPAGPPRP | 0.338
3 | RRIRLRPPRLPRPRPRPAIGPRP | -0.00988
4 | RRIRLRPPRLPRPRPRPAISPRP | 0.118
5 | RRIRLRPPRLPRPRPRPAITPRP | -0.252
6 | RRIRLRPPRLPRPRPRPAKMPRP | -0.169
7 | RRIRLRPPRLPRPRPRPAKPPRP | 1.22
8 | RRIRLRPPRLPRPRPRPALFPRP | 0.488
9 | RRIRLRPPRLPRPRPRPALWPRP | 0.754
10 | RRIRLRPPRLPRPRPRPAMPPRP | 0.234
11 | RRIRLRPPRLPRPRPRPAMSPRP | 0.019
12 | RRIRLRPPRLPRPRPRPAMVPRP | 0.0527
13 | RRIRLRPPRLPRPRPRPAPRPRP | 0.816
14 | RRIRLRPPRLPRPRPRPAPVPRP | 0.23
15 | RRIRLRPPRLPRPRPRPAPYPRP | 0.0426
16 | RRIRLRPPRLPRPRPRPAQCPRP | -0.23
17 | RRIRLRPPRLPRPRPRPAQDPRP | 0.392
18 | RRIRLRPPRLPRPRPRPAQHPRP | -0.132
19 | RRIRLRPPRLPRPRPRPARWPRP | 0.284
20 | RRIRLRPPRLPRPRPRPARYPRP | -0.0839
21 | RRIRLRPPRLPRPRPRPASAPRP | 0.202
22 | RRIRLRPPRLPRPRPRPATDPRP | 0.142
23 | RRIRLRPPRLPRPRPRPAVCPRP | 0.0348
24 | RRIRLRPPRLPRPRPRPAVGPRP | -0.0315
25 | RRIRLRPPRLPRPRPRPAVVPRP | 0.028

Row | Sequence | shrunken log2 fold change
26 | RRIRLRPPRLPRPRPRPAWVPRP | -0.0218
27 | RRIRLRPPRLPRPRPRPAYTPRP | -0.203
28 | RRIRLRPPRLPRPRPRPCCNPRP | -0.155
29 | RRIRLRPPRLPRPRPRPCCSPRP | -0.144
30 | RRIRLRPPRLPRPRPRPCCTPRP | -0.0665
31 | RRIRLRPPRLPRPRPRPCDFPRP | 0.092
32 | RRIRLRPPRLPRPRPRPCDWPRP | 0.201
33 | RRIRLRPPRLPRPRPRPCEVPRP | 0.0632
34 | RRIRLRPPRLPRPRPRPCFIPRP | 0.554
35 | RRIRLRPPRLPRPRPRPCFKPRP | -0.315
36 | RRIRLRPPRLPRPRPRPCFLPRP | -0.337
37 | RRIRLRPPRLPRPRPRPCFVPRP | -0.392
38 | RRIRLRPPRLPRPRPRPCGHPRP | -0.0228
39 | RRIRLRPPRLPRPRPRPCGQPRP | -0.0417
40 | RRIRLRPPRLPRPRPRPCHIPRP | -0.113
41 | RRIRLRPPRLPRPRPRPCHSPRP | -0.011
42 | RRIRLRPPRLPRPRPRPCHYPRP | -0.0212
43 | RRIRLRPPRLPRPRPRPCIFPRP | -0.463
44 | RRIRLRPPRLPRPRPRPCKDPRP | -0.194
45 | RRIRLRPPRLPRPRPRPCLPPRP | -0.0626
46 | RRIRLRPPRLPRPRPRPCNLPRP | 0.034
47 | RRIRLRPPRLPRPRPRPCNMPRP | 0.0385
48 | RRIRLRPPRLPRPRPRPCNRPRP | 0.214
49 | RRIRLRPPRLPRPRPRPCNSPRP | 0.165
50 | RRIRLRPPRLPRPRPRPCQEPRP | -0.0108

Row | Sequence | shrunken log2 fold change
51 | RRIRLRPPRLPRPRPRPCRFPRP | -0.226
52 | RRIRLRPPRLPRPRPRPCSHPRP | -0.226
53 | RRIRLRPPRLPRPRPRPCSQPRP | -0.0964
54 | RRIRLRPPRLPRPRPRPCTIPRP | -0.298
55 | RRIRLRPPRLPRPRPRPDDYPRP | -0.247
56 | RRIRLRPPRLPRPRPRPDEGPRP | -0.018
57 | RRIRLRPPRLPRPRPRPDENPRP | 0.087
58 | RRIRLRPPRLPRPRPRPDFTPRP | 0.102
59 | RRIRLRPPRLPRPRPRPDHGPRP | -0.147
60 | RRIRLRPPRLPRPRPRPDIWPRP | -0.137
61 | RRIRLRPPRLPRPRPRPDIYPRP | -0.458
62 | RRIRLRPPRLPRPRPRPDKWPRP | 0.0575
63 | RRIRLRPPRLPRPRPRPDNWPRP | -0.0493
64 | RRIRLRPPRLPRPRPRPDPWPRP | 0.0779
65 | RRIRLRPPRLPRPRPRPDSAPRP | 0.0605
66 | RRIRLRPPRLPRPRPRPDSVPRP | 0.0031
67 | RRIRLRPPRLPRPRPRPDTMPRP | -0.286
68 | RRIRLRPPRLPRPRPRPDTSPRP | -0.114
69 | RRIRLRPPRLPRPRPRPDTTPRP | -0.138
70 | RRIRLRPPRLPRPRPRPDTYPRP | -0.93
71 | RRIRLRPPRLPRPRPRPDVDPRP | 0.0667
72 | RRIRLRPPRLPRPRPRPDVKPRP | -0.488
73 | RRIRLRPPRLPRPRPRPDVSPRP | 0.0432
74 | RRIRLRPPRLPRPRPRPDWKPRP | 0.0269
75 | RRIRLRPPRLPRPRPRPDWTPRP | 0.000807
